The values that follow come from US20180169233A1 (MOSAIC BIOMEDICALS S L, published 2018).

This test deals with human LIF (source not stated) (human, UniProt P15018 23-202). Kind of test: cell-based or functional assay.
Sequence of human LIF (source not stated) (P15018 23-202 limits assumed): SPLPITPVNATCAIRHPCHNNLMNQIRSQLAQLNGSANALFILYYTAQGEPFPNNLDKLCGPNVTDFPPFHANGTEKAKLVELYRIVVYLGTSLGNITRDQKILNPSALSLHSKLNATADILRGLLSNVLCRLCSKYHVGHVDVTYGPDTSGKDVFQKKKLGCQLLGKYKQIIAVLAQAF

B1: h5D8 (humanized 5D8 comprising H2 and L2) (antibody, human IgG1, kappa, V domains shown)
VH: QVQLQESGGGLVKPGGSLRLSCAASGFTFSHAWMHWVRQAPGKGLEWVGQIKAKSDDYATYYAESVKGRFTISRDDSKNTLYLQMNSLKTEDTAVYYCTCWEWDLDFWGQGTMVTVSS
VL: DIVMTQTPLSSPVTLGQPASISCRSSQSLLDSDGHTYLNWLQQRPGQPPRLLIYSVSNLESGVPDRFSGSGAGTDFTLKISRVEAEDVGVYYCMQATHAPPYTFGQGTKLEIKR
Consider B1, for which the “IC50 for biological inhibition (pSTAT3, U-251 cells, serum starved, endogenous LIF)” value is 490 picomolar.
